# Measurements published in article PMC4624332 (Cell, 2015).
# B1: Tse6_(265-CT) (domain or fragment)
# chain: QRRAYLNNKFGRSGNLDHDINYRGNRETAAKFFKSKDIDPADAESYMNGLDFNHPVRVETLAPGKNLWQYQSPGAPQGNWYTLSPRVQPTELGINPMGTNRAANTIEPKVLNSYRTTQKVEVLRSTAAPTDDFWSVKGQSYPAKGGAQQLFSNEKGSFGLLPREGS
# B2: EagT6, recombinant, in the purified Tse6 complex (natural protein)
# chain: MTLYRLHEADLEIPDAWQDQSINIFKLPASGPAREASFVISRDASQGDAPFADYVARQLENAEKQLPGFKLHKRWDINIHGHAAVLLDYQWQREGRDLMLRQVFIERRPAVLITTLTTTPADLPHHEPAWKQAMQTLVPRPTPS
# Experiments:
# [1] = target: Tse6_(265-CT) (P. aeruginosa) (UniProt Q9I739); experiment: ITC
# [2] = target: EF-Tu^PA•GDP (P. aeruginosa EF-Tu, GDP-bound), purified (P. aeruginosa, UniProt P09591 1-397); experiment: ITC
# [3] = target: EF-Tu^EC•GDP (E. coli EF-Tu, GDP-bound), purified for ITC (E. coli, UniProt P0CE47 2-393); experiment: ITC
# [4] = target: C-terminally octa-histidine-tagged Tse6 (full-length toxin) (P. aeruginosa, UniProt Q9I739 1-430); experiment: negative-stain electron microscopy
# EF-Tu^EC•GDP (E. coli EF-Tu, GDP-bound), purified for ITC, sequence (P0CE47 2-393): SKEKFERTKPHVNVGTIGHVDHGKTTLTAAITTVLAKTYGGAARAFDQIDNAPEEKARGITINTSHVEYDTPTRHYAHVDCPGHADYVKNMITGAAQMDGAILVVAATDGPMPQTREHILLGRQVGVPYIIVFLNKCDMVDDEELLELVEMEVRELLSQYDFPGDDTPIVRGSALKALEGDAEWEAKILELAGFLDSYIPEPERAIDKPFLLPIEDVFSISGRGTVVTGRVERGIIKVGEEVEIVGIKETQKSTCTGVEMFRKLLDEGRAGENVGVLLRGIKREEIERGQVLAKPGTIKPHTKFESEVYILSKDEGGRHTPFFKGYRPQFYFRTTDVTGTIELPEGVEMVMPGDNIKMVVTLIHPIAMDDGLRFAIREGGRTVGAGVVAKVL
# EF-Tu^PA•GDP (P. aeruginosa EF-Tu, GDP-bound), purified, sequence (P09591 whole entry): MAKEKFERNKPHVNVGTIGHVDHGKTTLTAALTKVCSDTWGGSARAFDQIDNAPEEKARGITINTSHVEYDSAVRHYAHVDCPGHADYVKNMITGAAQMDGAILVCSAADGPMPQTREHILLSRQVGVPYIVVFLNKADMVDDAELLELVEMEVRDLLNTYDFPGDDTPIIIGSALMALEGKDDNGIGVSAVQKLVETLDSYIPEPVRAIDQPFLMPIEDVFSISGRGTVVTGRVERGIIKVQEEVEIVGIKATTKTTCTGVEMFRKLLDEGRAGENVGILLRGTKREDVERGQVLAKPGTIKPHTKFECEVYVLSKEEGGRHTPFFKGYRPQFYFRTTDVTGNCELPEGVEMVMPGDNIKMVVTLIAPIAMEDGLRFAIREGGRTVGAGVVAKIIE
molecule,measurement,setting,value
EF-Tu with the antibiotic Aurodox (locked into its GTP-bound conformation) (from UniProt P09591 1-397) (natural protein),fold reduction of the affinity with Aurodox against EF-Tu•GDP,[1],10 fold
B1,Kd,[2],23 nM
same,Kd,[3],81 nM
B2,binding result,[4],binds
